The labels stand for the following.
B1: SMTNL2 (parent)
chain: ETAAGKGKGEARARLKRSQSFGVA

Experimental findings from the supplement of paper PMC10567573 are described below.
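Further: lentivirally expressed fusions sorted by FACS into six bins by GFP to DsRed ratio, PSI derived from sequencing read proportions per bin multiplied by bin number.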

The variants in this data set derive from B1. As to the kind of experiment: protein stability index of a GFP-peptide fusion (GPS, HEK-293T) (PSI 1-6); higher = more stable. The conditions noted are these: c terminus: a fixed tail appended.
As for ETAAGKGKGEYRARLKRSQSFGVA [A11Y], the protein stability index was 4.06.
Regarding ETAAGKGKGEPRARLKRSQSFGVA [A11P], the protein stability index is 4.46.
ETAAGKGKGEERARLKRSQSFGVA [A11E]: the protein stability index was determined as 4.69.
For ETAAGKGKGEGRARLKRSQSFGVA [A11G], the protein stability index stood at 4.61.
For ETAAGKGKGELRARLKRSQSFGVA [A11L], the protein stability index came out at 4.5.
For ETAAGKGKGEDRARLKRSQSFGVA [A11D], the protein stability index stood at 4.8.
Then ETAAGKGKGEKRARLKRSQSFGVA [A11K], with 4.74; and ETAAGKGKGEIRARLKRSQSFGVA [A11I], with 3.69.
On to ETAAGKGKGENRARLKRSQSFGVA [A11N], for which the protein stability index is 4.56.
Then ETAAGKGKGERRARLKRSQSFGVA [A11R], with 4.73; and ETAAGKGKGEHRARLKRSQSFGVA [A11H], with 4.49; and ETAAGKGKGEMRARLKRSQSFGVA [A11M], with 4.19.
ETAAGKGKGEFRARLKRSQSFGVA [A11F]: the protein stability index is 3.71.
Then ETAAGKGKGEQRARLKRSQSFGVA [A11Q], with 4.19; and ETAAGKGKGESRARLKRSQSFGVA [A11S], with 4.58; and ETAAGKGKGECRARLKRSQSFGVA [A11C], with 3.96.
Turning to ETAAGKGKGETRARLKRSQSFGVA [A11T], the protein stability index was determined as 4.62.
For the variant ETAAGKGKGEVRARLKRSQSFGVA [A11V], the protein stability index is 4.02.
Then ETAAGKGKGEWRARLKRSQSFGVA [A11W], with 3.65.
Then ETAAGKAKGEARARLKRSQSFGVA [G7A], with 4.28.
Then ETAAGKKKGEARARLKRSQSFGVA [G7K], with 4.62.
Turning to ETAAGKHKGEARARLKRSQSFGVA [G7H], the protein stability index stood at 4.18.
The figure for ETAAGKYKGEARARLKRSQSFGVA [G7Y] is 4.2; for ETAAGKEKGEARARLKRSQSFGVA [G7E] it is 4.71; for ETAAGKNKGEARARLKRSQSFGVA [G7N] it is 4.02.
Then ETAAGKCKGEARARLKRSQSFGVA [G7C], with 3.48.
Then ETAAGKSKGEARARLKRSQSFGVA [G7S], with 4.22; and ETAAGKTKGEARARLKRSQSFGVA [G7T], with 4.48; and ETAAGKPKGEARARLKRSQSFGVA [G7P], with 4.08.
As for ETAAGKIKGEARARLKRSQSFGVA [G7I], the protein stability index stood at 4.17.
On to ETAAGKWKGEARARLKRSQSFGVA [G7W], for which the protein stability index was found to be 3.03.
On to ETAAGKFKGEARARLKRSQSFGVA [G7F], for which the protein stability index is 3.87.
In the case of ETAAGKDKGEARARLKRSQSFGVA [G7D], the protein stability index is 4.75.
The figure for ETAAGKQKGEARARLKRSQSFGVA [G7Q] is 4.46.
The figure for ETAAGKVKGEARARLKRSQSFGVA [G7V] is 4.01; for ETAAGKMKGEARARLKRSQSFGVA [G7M] it is 3.73; for ETAAGKLKGEARARLKRSQSFGVA [G7L] it is 4.26.
For the variant ETAAGKRKGEARARLKRSQSFGVA [G7R], the protein stability index worked out at 4.11.
With ETAAGKGKDEARARLKRSQSFGVA [G9D], the protein stability index amounted to 4.53.
Then ETAAGKGKFEARARLKRSQSFGVA [G9F], with 4.12; and ETAAGKGKMEARARLKRSQSFGVA [G9M], with 3.95.
The figure for ETAAGKGKCEARARLKRSQSFGVA [G9C] is 4.21; for ETAAGKGKWEARARLKRSQSFGVA [G9W] it is 3.27.
Then ETAAGKGKNEARARLKRSQSFGVA [G9N], with 4.56; and ETAAGKGKHEARARLKRSQSFGVA [G9H], with 4.58.
Consider ETAAGKGKQEARARLKRSQSFGVA [G9Q], for which the protein stability index was determined as 4.51.
For ETAAGKGKTEARARLKRSQSFGVA [G9T], the protein stability index was found to be 3.6.
The figure for ETAAGKGKSEARARLKRSQSFGVA [G9S] is 5.08.
Consider ETAAGKGKPEARARLKRSQSFGVA [G9P], for which the protein stability index turned out to be 4.43.
As for ETAAGKGKYEARARLKRSQSFGVA [G9Y], the protein stability index is 4.42.
With ETAAGKGKREARARLKRSQSFGVA [G9R], the protein stability index came to 4.27.
With ETAAGKGKAEARARLKRSQSFGVA [G9A], the protein stability index is 4.12.
As to ETAAGKGKEEARARLKRSQSFGVA [G9E], the protein stability index is 4.96.
In the case of ETAAGKGKVEARARLKRSQSFGVA [G9V], the protein stability index came to 4.26.
The figure for ETAAGKGKLEARARLKRSQSFGVA [G9L] is 3.6; for ETAAGKGKIEARARLKRSQSFGVA [G9I] it is 4.37; for ETAAGKGKKEARARLKRSQSFGVA [G9K] it is 4.21.
Then ETAAGKGKGEARERLKRSQSFGVA [A13E], with 4.95.
The figure for ETAAGKGKGEARDRLKRSQSFGVA [A13D] is 4.4.
In the case of ETAAGKGKGEARCRLKRSQSFGVA [A13C], the protein stability index is 4.38.
Then ETANGKGKGEARARLKRSQSFGVA [A4N], with 4.13; and ETAIGKGKGEARARLKRSQSFGVA [A4I], with 4.24; and ETAGGKGKGEARARLKRSQSFGVA [A4G], with 4.29.
Then ETALGKGKGEARARLKRSQSFGVA [A4L], with 3.81; and ETAYGKGKGEARARLKRSQSFGVA [A4Y], with 4.77.
Then ETAHGKGKGEARARLKRSQSFGVA [A4H], with 4.3; and ETAQGKGKGEARARLKRSQSFGVA [A4Q], with 4.78; and ETAKGKGKGEARARLKRSQSFGVA [A4K], with 4.81.
Turning to ETATGKGKGEARARLKRSQSFGVA [A4T], the protein stability index stood at 4.67.
The figure for ETARGKGKGEARARLKRSQSFGVA [A4R] is 4.46; for ETACGKGKGEARARLKRSQSFGVA [A4C] it is 4.46; for ETAMGKGKGEARARLKRSQSFGVA [A4M] it is 4.71.
Then ETAPGKGKGEARARLKRSQSFGVA [A4P], with 4.54.
Then ETAEGKGKGEARARLKRSQSFGVA [A4E], with 5.09; and ETAWGKGKGEARARLKRSQSFGVA [A4W], with 3.98; and ETASGKGKGEARARLKRSQSFGVA [A4S], with 4.02.
With ETAVGKGKGEARARLKRSQSFGVA [A4V], the protein stability index stood at 3.99.
The figure for ETAAGKGKGEAMARLKRSQSFGVA [R12M] is 3.94; for ETAAGKGKGEAQARLKRSQSFGVA [R12Q] it is 4.61; for ETAAGKGKGEASARLKRSQSFGVA [R12S] it is 4.92.
Then ETAAGKGKGEAYARLKRSQSFGVA [R12Y], with 4.28; and ETAAGKGKGEAKARLKRSQSFGVA [R12K], with 4.88; and ETAAGKGKGEAHARLKRSQSFGVA [R12H], with 4.45.
The figure for ETAAGKGKGEAFARLKRSQSFGVA [R12F] is 3.9; for ETAAGKGKGEALARLKRSQSFGVA [R12L] it is 4.24; for ETAAGKGKGEANARLKRSQSFGVA [R12N] it is 3.82.
As for ETAAGKGKGEAGARLKRSQSFGVA [R12G], the protein stability index was 5.1.
The figure for ETAAGKGKGEATARLKRSQSFGVA [R12T] is 3.76.
Consider ETAAGKGKGEAVARLKRSQSFGVA [R12V], for which the protein stability index is 4.83.
Then ETAAGKGKGEAWARLKRSQSFGVA [R12W], with 3.14; and ETAAGKGKGEAEARLKRSQSFGVA [R12E], with 5.03; and ETAAGKGKGEADARLKRSQSFGVA [R12D], with 4.79.
With ETAAGKGKGEACARLKRSQSFGVA [R12C], the protein stability index was 4.38.
In the case of ETAAGKGKGEAIARLKRSQSFGVA [R12I], the protein stability index was determined as 3.95.
